From patent US20240270860A1

What was measured:
Assay in all cases: peptide-array ELISA (CYS.S) [Continued]
…2RPGWY2 = target: T1, …2RPGWY2
T1 sequence (peptide, 2 = Cys(ACM)): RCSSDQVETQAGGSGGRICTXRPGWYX

[1] = target: T2, …2GGSGG2…
T2 sequence (peptide, 2 = Cys(ACM)): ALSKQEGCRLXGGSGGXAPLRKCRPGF

2…2RPGWY2 = target: T3, 2…2RPGWY2
T3 sequence (peptide, 2 = Cys(ACM)): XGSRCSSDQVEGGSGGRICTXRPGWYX

2…2RPGWY = target: T4, 2…2RPGWY
T4 sequence (peptide, 2 = Cys(ACM)): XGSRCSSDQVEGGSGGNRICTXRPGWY

VPE2LS2…2RPGWY2A = target: T5, VPE2LS2…2RPGWY2A
T5 sequence (peptide, 2 = Cys(ACM)): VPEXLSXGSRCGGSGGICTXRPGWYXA

E2LS2…2RPGWY2A = target: T6, E2LS2…2RPGWY2A
T6 sequence (peptide, 2 = Cys(ACM)): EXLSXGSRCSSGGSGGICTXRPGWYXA

S2…2RPGWY2AL = target: T7, S2…2RPGWY2AL
T7 sequence (peptide, 2 = Cys(ACM)): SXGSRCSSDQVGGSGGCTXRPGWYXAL

[2] = target: T8, …2AGGSGG2…
T8 sequence (peptide, 2 = Cys(ACM)): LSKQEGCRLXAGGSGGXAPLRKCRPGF

E2LS2…2RPGWY = target: T9, E2LS2…2RPGWY
T9 sequence (peptide, 2 = Cys(ACM)): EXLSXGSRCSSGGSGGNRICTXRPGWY

2LS2…2RPGWY = target: T10, 2LS2…2RPGWY
T10 sequence (peptide, 2 = Cys(ACM)): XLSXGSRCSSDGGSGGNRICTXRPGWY

E2LS2…2RPGWY2 = target: T11, E2LS2…2RPGWY2
T11 sequence (peptide, 2 = Cys(ACM)): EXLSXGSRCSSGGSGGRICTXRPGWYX

2LS2…2RPGWY2 = target: T12, 2LS2…2RPGWY2
T12 sequence (peptide, 2 = Cys(ACM)): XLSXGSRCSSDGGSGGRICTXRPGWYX

…2GGSGGICT2RPGWY2A = target: T13, …2GGSGGICT2RPGWY2A
T13 sequence (peptide, 2 = Cys(ACM)): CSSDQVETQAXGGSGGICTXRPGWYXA

VPE2LS2…2RPGWY = target: T14, VPE2LS2…2RPGWY
T14 sequence (peptide, 2 = Cys(ACM)): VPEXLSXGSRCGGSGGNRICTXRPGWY

…2…2RPGWY = target: T15, …2…2RPGWY
T15 sequence (peptide, 2 = Cys(ACM)): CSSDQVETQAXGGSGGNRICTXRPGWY

2LS2…2RPGWY2AL = target: T16, 2LS2…2RPGWY2AL
T16 sequence (peptide, 2 = Cys(ACM)): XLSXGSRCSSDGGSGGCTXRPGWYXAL

…2RPGWY2AL = target: T17, …2RPGWY2AL
T17 sequence (peptide, 2 = Cys(ACM)): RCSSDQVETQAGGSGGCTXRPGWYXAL

VPE2LS2…2RPGWY2 = target: T18, VPE2LS2…2RPGWY2
T18 sequence (peptide, 2 = Cys(ACM)): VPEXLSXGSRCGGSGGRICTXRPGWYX

[3] = target: T19, …2…
T19 sequence (peptide, 2 = Cys(ACM)): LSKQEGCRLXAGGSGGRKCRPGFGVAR

E2LS2…2RPGWY2AL = target: T20, E2LS2…2RPGWY2AL
T20 sequence (peptide, 2 = Cys(ACM)): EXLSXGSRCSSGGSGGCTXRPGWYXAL

[4] = target: T21, …2…; remark: listed apart in the source
T21 sequence (peptide, 2 = Cys(ACM)): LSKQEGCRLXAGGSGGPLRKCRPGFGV

[5] = target: T22, EGCRL2…2…
T22 sequence (peptide, 2 = Cys(ACM)): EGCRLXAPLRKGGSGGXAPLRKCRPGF

[6] = target: T23, Y2…
T23 sequence (peptide, 2 = Cys(ACM)): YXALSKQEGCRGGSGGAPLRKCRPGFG

[7] = target: T24, QEGCRL2…
T24 sequence (peptide, 2 = Cys(ACM)): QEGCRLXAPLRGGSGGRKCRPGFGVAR

LS2…2RPGWY2AL = target: T25, LS2…2RPGWY2AL
T25 sequence (peptide, 2 = Cys(ACM)): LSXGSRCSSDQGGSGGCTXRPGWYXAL

[8] = target: T26, SKQEGCRL2…
T26 sequence (peptide, 2 = Cys(ACM)): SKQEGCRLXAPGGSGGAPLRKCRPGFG

2…2RPGWY2AL = target: T27, 2…2RPGWY2AL
T27 sequence (peptide, 2 = Cys(ACM)): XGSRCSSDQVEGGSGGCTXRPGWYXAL

[9] = target: T28, 2TREQNRI2…
T28 sequence (peptide, 2 = Cys(ACM)): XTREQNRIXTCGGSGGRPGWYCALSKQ

…2RPGWY2A = target: T29, …2RPGWY2A
T29 sequence (peptide, 2 = Cys(ACM)): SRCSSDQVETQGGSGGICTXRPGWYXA

[10] = target: T30, 2…2…
T30 sequence (peptide, 2 = Cys(ACM)): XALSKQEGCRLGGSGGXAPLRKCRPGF

[11] = target: T31, SKQEGCRL2…; remark: listed apart in the source
T31 sequence (peptide, 2 = Cys(ACM)): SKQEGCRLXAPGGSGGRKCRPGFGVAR

PE2LS2…2RPGWY = target: T32, PE2LS2…2RPGWY
T32 sequence (peptide, 2 = Cys(ACM)): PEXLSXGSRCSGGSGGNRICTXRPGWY

[12] = target: T33, …2…; remark: listed apart in the source
T33 sequence (peptide, 2 = Cys(ACM)): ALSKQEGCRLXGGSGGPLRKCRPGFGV

[13] = target: T34, QEGCRL2…; remark: listed apart in the source
T34 sequence (peptide, 2 = Cys(ACM)): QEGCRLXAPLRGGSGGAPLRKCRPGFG

[14] = target: T35, 2…
T35 sequence (peptide, 2 = Cys(ACM)): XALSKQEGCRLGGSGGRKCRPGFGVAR

[15] = target: T36, SKQEGCRL2APGGSGG2…
T36 sequence (peptide, 2 = Cys(ACM)): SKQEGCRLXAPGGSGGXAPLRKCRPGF

B1: antagonistic TNFR2 antibody TNFRAB1 (antibody, V domains shown)
VH: EVQLQESGGGLVKPGGSLKLSCAASGFTFSSYVMSWVRQTPEKRLEWVATISSGGSYTYYPDSVKGRFTISRDNAKNTLYLQMSSLRSEDTAMYYCARQRVDGYSSYWYFDVWGAGTAVTVSS
VL: DIVLTQSPAIMSASPGEKVTITCSASSSVYYMYWFQQKPGTSPKLWIYSTSNLASGVPVRFSGSGSGTSYSLTISRMEAEDAATYYCQQRRNYPYTFGGGTKLEIKR
Raw luminescence data (…2RPGWY2): 543 | Raw luminescence data [1]: 560 | Raw luminescence data (2…2RPGWY2): 614 | Raw luminescence data (2…2RPGWY): 588 | Raw luminescence data (VPE2LS2…2RPGWY2A): 540 | Raw luminescence data (E2LS2…2RPGWY2A): 454 | Raw luminescence data (S2…2RPGWY2AL): 538 | Raw luminescence data [2]: 529 | Raw luminescence data (E2LS2…2RPGWY): 389 | Raw luminescence data (2LS2…2RPGWY): 878 | Raw luminescence data (E2LS2…2RPGWY2): 478 | Raw luminescence data (2LS2…2RPGWY2): 436 | Raw luminescence data (…2GGSGGICT2RPGWY2A): 454 | Raw luminescence data (VPE2LS2…2RPGWY): 853 | Raw luminescence data (…2…2RPGWY): 487 | Raw luminescence data (2LS2…2RPGWY2AL): 603 | Raw luminescence data (…2RPGWY2AL): 319 | Raw luminescence data (VPE2LS2…2RPGWY2): 478 | Raw luminescence data [3]: 474 | Raw luminescence data (E2LS2…2RPGWY2AL): 605 | Raw luminescence data [4]: 434 | Raw luminescence data [5]: 604 | Raw luminescence data [6]: 553 | Raw luminescence data [7]: 426 | Raw luminescence data (LS2…2RPGWY2AL): 510 | Raw luminescence data [8]: 220 | Raw luminescence data (2…2RPGWY2AL): 480 | Raw luminescence data [9]: 101 | Raw luminescence data (…2RPGWY2A): 388 | Raw luminescence data [10]: 439 | Raw luminescence data [11]: 430 | Raw luminescence data (PE2LS2…2RPGWY): 928 | Raw luminescence data [12]: 446 | Raw luminescence data [13]: 340 | Raw luminescence data [14]: 443 | Raw luminescence data [15]: 507
